Test results from patent US20190374607A1.

Target: chemokine (C-X-C) motif receptor (CXCR) 4 (UniProt P61073)
Assay: cell-based or functional assay

chemokine (C-X-C) motif receptor (CXCR) 4, sequence (P61073 whole entry): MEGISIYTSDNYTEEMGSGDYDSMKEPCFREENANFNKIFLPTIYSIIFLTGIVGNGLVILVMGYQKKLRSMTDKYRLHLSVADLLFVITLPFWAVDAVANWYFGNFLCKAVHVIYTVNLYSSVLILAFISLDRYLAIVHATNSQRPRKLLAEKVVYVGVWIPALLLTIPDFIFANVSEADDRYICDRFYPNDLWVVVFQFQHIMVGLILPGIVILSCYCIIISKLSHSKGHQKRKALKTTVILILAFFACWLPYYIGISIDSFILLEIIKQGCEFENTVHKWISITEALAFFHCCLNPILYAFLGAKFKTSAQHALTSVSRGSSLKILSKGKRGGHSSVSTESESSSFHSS

EC50, inhibition of thrombin-mediated hyper-permeability of hPPAEC (t=255 min) [nM]	concentration at which thrombin-mediated hPPAEC barrier impairment was affected (t=255 min) [nM]	Substance
0.05 to 0.5	–	CXCL12 K27A/R41A/R47A (from UniProt P48061 22-89) (ligand)
0.5 to 50	–	CXCL12 R47E (from UniProt P48061 22-89) (ligand)
0.05 to 0.5	–	CXCL12β (from UniProt P48061 22-93) (ligand)
–	50	Locked dimer CXCL122 (constitutively dimeric CXCL12 variant, L36C/A65C) (from UniProt O62657 22-89) (ligand)
